The text below walks through data of US20230279130A1 (QILU PUGET SOUND BIOTHERAPEUTICS, published 2023).

The target in test [1] is T1, full length human CCR8 (hCCR8) (human, UniProt P51685 1-355). In words: cell-based or functional assay.
For test [2], the target named is T2, recombinant hCCR8 N-terminus fused at the N-terminal of Fc region of human IgG1 (human).
T2 construct: also called recombinant huCCR8-N terminus antigen; huCCR8 N-terminus protein; not shown: Fc region of human IgG1
Put plainly: SPR (Biacore 3000), Fab flowed over captured CCR8-fc; column head printed 'K0' (KD). As to the method:
(§1) FIGS. 1A-1D: Binding of anti-CCR8 Fabs to recombinant huCCR8-N terminus antigen (Seq No.1). Binding affinity of anti-CCR8 Fabs for huCCR8 N-terminus protein was determined by Biacore analysis. Digested anti-CCR8 Fab fragments were flowed over captured antigen.
(§2) The affinity of the candidate antibodies for human CCR8 was assessed using SPR on a Biacore 3000 instrument. Anti-CCR8 Fab fragments were flowed over the cells in the chip with multiple blank (running buffer) injections also run to subtract system artifacts. The data were aligned, double referenced, and fit using SCRUBBER 2™ software (BioLogic Software, Pty, Australia). […] The binding of anti-CCR8 antibodies to CCR8 was then examined in HEK293 cells or P815 cells transfected with full-length hCCR8.
(In general: Surface plasmon resonance follows binding to a sensor surface in real time, without labels.)

For test [3], the target named is T1, full length human CCR8 (hCCR8). Put plainly: cell-based or functional assay. This is another data set of the same source.
The target in test [4] is T2, recombinant hCCR8 N-terminus fused at …. In words: SPR, Biacore 3000; Fab flowed over captured hCCR8 N-terminus-Fc. The protocol: as §1, §2

T2 sequence (chain, as listed by the source): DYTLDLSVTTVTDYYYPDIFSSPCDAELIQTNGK

B1: engineered anti CCR8 Fab 1047 (Fab, V domains shown)
VH: EVQLVESGGGVVQPGRSLRLSCAASGFPFEPFAMNWVRQAPGKGLEWVARIRSKANNYATYYADSVKDRFAISRDNSKSTLYLLMHSLRFEDTAVYYCVRGRENNYGYAMDYWGQGTTVTVSS
VL: DVVMTQSPPSLPVTLGQSASISCRSSQSLLHSNGITYLYWFLQRPGQSPRLLIYRMSNLASGVPDRFSGSGSGTDFTLRISRVEAEDVGVYYCMQHLTYPFTFGIGTKVEIK
notes: Fab made by digesting the antibody; also called Fab fragment of 1047
Consider B1, for which the “average IC50 of inhibition of CCL1-mediated chemotaxis of hCCR8 P815 cells” value (shortened to “average IC50 of inhibition … of hCCR8 P815 cells”) in test [1] is 1090 pM. In addition, the Kd (as a rule, a measure of binding affinity in units of concentration) in test [2] turned out to be 876 pM.

B2: Fab fragment of anti-CCR8 antibody 1434 (Fab, V domains shown)
VH: EVQLVESGGGLVQPGGSLRLSCAASGFPFEPFAMNWVRQAPGKGLEWVGRIRSKANNYATYYADSVKDRFTISRDDSKRSLYLLMNSLKFEDTAVYYCVRGRENNYGYAMDYWGQGTTVTVSS
VL: DVVMTQSPLSLPVTLGQPASISCRSSQSLLHSNGITYLYWFQQRPGQSPRRLIYRMSNLASGVPDRFSGSGSGTDFTLKISRVEAEDVGVYYCMQHLTYPFTFGIGTKVEIK
For the molecule B2, the “average IC50 of inhibition … of hCCR8 P815 cells” value in test [1] was 414 pM.

B3: anti-CCR8 antibody 1187 (antibody, V domains shown)
VH: EVQLVESGGGVVQPGRSLRLSCAASGFPFEPFAMNWVRQAPGKGLEWVARIRSKANNYATYYADSVKDRFAISRDNSKRTLYLLMHSLRFEDTAVYYCVRGRENNYGYAMDYWGQGTTVTVSS
VL: DVVMTQSPPSLPVTLGQSASISCRSSQSLLHSNGITYLYWFLQRPGQSPRLLIYRMSNLASGVPDRFSGSGSGTDFTLRISRVEAEDVGVYYCMQHLTYPFTFGIGTKVEIK
Take B3: the “IC50, inhibition of chemotaxis of hCCR8-transfected P815 cells to 1 nM CCL1 (intact IgG1, Cell Titer Glo)” value in test [3] was 0.00403 µg/mL.

B4: engineered anti-CCR8 Fab 953 (Fab, V domains shown)
VH: EVQLVESGGGVVQPGRSLRLSCAASGFPFEPFAMNWVRQAPGKGLEWVARIRSKANNYATYYADSVKDRFAISRDNSKSTLYLLMHSLRFEDTAVYYCVRGRENRYGYAMDYWGQGTTVTVSS
VL: DVVMTQSPPSLPVTLGQSASISCRSSQSLLHSNGITYLYWFLQRPGQSPRLLIYRMSNLASGVPDRFSGSGSGTDFTLRISRVEAEDVGVYYCMQHLTYPFTFGIGTKVEIK
notes: Fab made by digesting the antibody
Consider B4, for which the “average IC50 of inhibition … of hCCR8 P815 cells” value in test [1] came out at 150 pM. Moreover, the Kd in test [2] came to 385 pM.

B5: Fab fragment of anti-CCR8 antibody 1187 (Fab, V domains shown)
VH: EVQLVESGGGVVQPGRSLRLSCAASGFPFEPFAMNWVRQAPGKGLEWVARIRSKANNYATYYADSVKDRFAISRDNSKRTLYLLMHSLRFEDTAVYYCVRGRENNYGYAMDYWGQGTTVTVSS
VL: DVVMTQSPPSLPVTLGQSASISCRSSQSLLHSNGITYLYWFLQRPGQSPRLLIYRMSNLASGVPDRFSGSGSGTDFTLRISRVEAEDVGVYYCMQHLTYPFTFGIGTKVEIK
notes: also called Fab 51
On to B5, for which, in test [1], the “IC50 of inhibition of CCL1-mediated chemotaxis of hCCR8 P815 cells” value was around 0.035 µg/mL and the “average IC50 of inhibition … of hCCR8 P815 cells” value worked out at 254 pM. In addition, in test [4], the Kd was found to be 647 pM and the “fold improvement of binding affinity against the original anti-CCR8 antibody candidate” value is 2.5 fold.
